The test concerns the target human factor Xa (Enzyme Research Laboratories, Inc.) (human, UniProt P00742 41-179; P00742 235-488, limits assumed). Nature of the test: chromogenic FXa inhibition. On the procedure: TBS-P buffer (50 mM Tris-Cl, pH 7.8, 200 mM NaCl, 0.05% (w/v) PEG-8000, 0.02% (w/v) NaN_3) was used for this assay. The IC$50$ was determined by combining in appropriate wells of a Costar half-area microtiter plate 25 μl human factor Xa (Enzyme Research Laboratories, Inc.; South Bend Ind.) in TBS-P; 40 μl 10% (v/v) DMSO in TBS-P (uninhibited control) or various concentrations of a peptide to be tested diluted in 10% (v/v) DMSO in TBS-P; and substrate S-2765 (Nα-benzyloxycarbonyl-D-Arg-Gly-L-Arg-p-nitroanilide; Kabi Pharmacia, Inc.; Franklin Ohio) in TBS-P.
The assays were performed by pre-incubating the peptide inhibitor plus enzyme for 10 min, then the assay was initiated by adding substrate to obtain a final volume of 100 μl. The initial velocity of chromogenic substrate hydrolysis was measured by the change in absorbance at 405 nm using a Bio-tek Instruments kinetic plate reader (Ceres UV900HDi) at 25° C. during the linear portion of the time course (usually 1–5 min after addition of substrate). The concentration of inhibitor that caused a 50% decrease in the rate of substrate hydrolysis was predicted by linear regression after plotting the relative rates of hydrolysis (compared to the uninhibited control) versus the log of the peptide concentration. The enzyme concentration was 0.5 nM and substrate concentration was 140 μM.

Non-standard residues stand in square brackets, D forms with d. No end group written: not given here. *: point of attachment. (pOH)C6H4‑OCH(CH3)CO = N-terminal acyl cap: 4-hydroxyphenyl-O-CH(CH3)-C(=O)- (2-(4-hydroxyphenoxy)propionyl), CC(Oc1ccc(O)cc1)C(=O)*; (pOH)C6H4‑CH2CHOH‑CO = N-terminal acyl cap: 4-hydroxyphenyl-CH2-CH(OH)-C(=O)- (4-hydroxyphenyllactyl); Phe(4-Cl) = N[C@@H](Cc1ccc(Cl)cc1)C(=O)O; Phe(4-F) = N[C@@H](Cc1ccc(F)cc1)C(=O)O; dTic = O=C(O)[C@H]1Cc2ccccc2CN1; Dab = NCC[C@H](N)C(=O)O; βAla = NCCC(=O)O; Sar = CNCC(=O)O; For = O=C* Bounds are passed on as bounds.

This note sets out measurements from US6759384 (AVENTIS PHARMACEUTICALS, dated 2004).

Chain of human factor Xa (Enzyme Research Laboratories, Inc.) (P00742 41-179 limits assumed, chain 1 of 2): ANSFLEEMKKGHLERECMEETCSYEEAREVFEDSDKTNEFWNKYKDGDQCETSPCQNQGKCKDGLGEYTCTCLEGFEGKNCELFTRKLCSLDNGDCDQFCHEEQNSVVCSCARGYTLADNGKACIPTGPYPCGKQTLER
Chain of human factor Xa (Enzyme Research Laboratories, Inc.) (P00742 235-488 limits assumed, chain 2 of 2): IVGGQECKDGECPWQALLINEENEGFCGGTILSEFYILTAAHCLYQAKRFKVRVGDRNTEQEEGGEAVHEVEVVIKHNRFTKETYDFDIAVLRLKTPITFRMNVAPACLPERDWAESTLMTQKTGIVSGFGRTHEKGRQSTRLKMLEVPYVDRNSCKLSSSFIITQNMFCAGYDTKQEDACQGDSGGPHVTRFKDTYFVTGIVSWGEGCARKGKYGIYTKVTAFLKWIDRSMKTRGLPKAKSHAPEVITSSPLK

The Ki is the dissociation constant of the complex between target and ligand, obtained from inhibition or displacement. Read a low Ki as a stronger hold on the target. The molecule {CF2H‑CO}-YIRLP-NH2 [CF2H-CO-Y-I-R-L-P-NH2] yielded a Ki below 100 µM. As for {4‑MeO‑C6H4‑CO}-IRLA-NH2 [4-MeO-C6H4-CO-I-R-L-A-NH2], the figure is below 100 µM; as for For-[dY]IRLP-NH2 [For-y-I-R-L-P-NH2], below 100 µM.

B1: D-Tic-I-R-L-A-A-F-T-NH2 (peptide)
peptide: [dTic]IRLAAFT-NH2
modifications: N-terminus assumed
SMILES: CC[C@H](C)[C@H](NC(=O)[C@H]1Cc2ccccc2CN1)C(=O)N[C@@H](CCCNC(=N)N)C(=O)N[C@@H](CC(C)C)C(=O)N[C@@H](C)C(=O)N[C@@H](C)C(=O)N[C@@H](Cc1ccccc1)C(=O)N[C@H](C(N)=O)[C@@H](C)O
B1 showed a Ki below 100 µM. The value for {CH3O‑CO}-YIRLP-NH2 [CH3O-CO-Y-I-R-L-P-NH2] was below 100 µM; that for {CH3‑CHCl‑CO}-YIRLP-NH2 [CH3-CHCl-CO-Y-I-R-L-P-NH2] was below 100 µM. The value for GGYIRG-NH2 [G-G-Y-I-R-G-NH2] was below 100 µM.

B2: F(pF)-I-R-L-P-NH2 (peptide)
peptide: [Phe(4-F)]IRLP-NH2
modifications: N-terminus assumed
SMILES: CC[C@H](C)[C@H](NC(=O)[C@@H](N)Cc1ccc(F)cc1)C(=O)N[C@@H](CCCNC(=N)N)C(=O)N[C@@H](CC(C)C)C(=O)N1CCC[C@H]1C(N)=O
notes: also called Phe(pF)-I-R-L-P-NH
Turning to B2, the Ki is below 100 µM.

FIRLYVWN-NH2 [F-I-R-L-Y-V-W-N-NH2]: the Ki is below 100 µM. The value for [βAla]YIRG (also: cyclisation unknown (underlining lost), may be cyclic; underlining lost) [βAla-Y-I-R-G] was below 100 µM; that for {CF3‑CF2CO}-YIRLP-NH2 [CF3-CF2CO-Y-I-R-L-P-NH2] was below 100 µM; that for NGYIRLIH-NH2 [N-G-Y-I-R-L-I-H-NH2] was below 100 µM. As to YIRI-NH2 [Y-I-R-I-NH2], the Ki was below 100 µM.

B3: I-H-L-W-y-I-R-L-P-NH2 (peptide)
peptide: IHLW[dY]IRLP-NH2
modifications: N-terminus assumed
SMILES: CC[C@H](C)[C@H](N)C(=O)N[C@@H](Cc1c[nH]cn1)C(=O)N[C@@H](CC(C)C)C(=O)N[C@@H](Cc1c[nH]c2ccccc12)C(=O)N[C@H](Cc1ccc(O)cc1)C(=O)N[C@H](C(=O)N[C@@H](CCCNC(=N)N)C(=O)N[C@@H](CC(C)C)C(=O)N1CCC[C@H]1C(N)=O)[C@@H](C)CC
B3 gave a Ki below 100 µM. The value for GYIRLPQT-NH2 [G-Y-I-R-L-P-Q-T-NH2] was below 100 µM; that for EYIRLPK-NH2 (also: cyclisation unknown (underlining lost), may be cyclic; underlining lost) [E-Y-I-R-L-P-K-NH2] was below 100 µM; that for IQLGYIRLP-NH2 [I-Q-L-G-Y-I-R-L-P-NH2] was below 100 µM.

B4: F(pCl)-I-R-I-Sar-NH2 (peptide)
peptide: [Phe(4-Cl)]IRI[Sar]-NH2
modifications: N-terminus assumed
SMILES: CC[C@H](C)[C@H](NC(=O)[C@@H](N)Cc1ccc(Cl)cc1)C(=O)N[C@@H](CCCNC(=N)N)C(=O)N[C@H](C(=O)N(C)CC(N)=O)[C@@H](C)CC
Regarding B4, the Ki is below 100 µM. In turn, Cl2CHCO-YIRLP-NH2 [Cl2CHCO-Y-I-R-L-P-NH2] returned a Ki below 100 µM.

B5: βAla-Y-I-R-G-NH2 (peptide)
peptide: [βAla]YIRG-NH2
modifications: N-terminus assumed
SMILES: CC[C@H](C)[C@H](NC(=O)[C@H](Cc1ccc(O)cc1)NC(=O)CCN)C(=O)N[C@@H](CCCNC(=N)N)C(=O)NCC(N)=O
In turn, B5 returned a Ki below 100 µM. Turning to FIRLPHYG-NH2 [F-I-R-L-P-H-Y-G-NH2], the Ki was below 100 µM. In turn, {CH3‑SO2}-YIRLP-NH2 [CH3-SO2-Y-I-R-L-P-NH2] came in with a Ki below 100 µM. GYIRLPSQ-NH2 [G-Y-I-R-L-P-S-Q-NH2] had a Ki below 100 µM. As for For-YIRLP-NH2 [For-Y-I-R-L-P-NH2], the figure is below 100 µM. The value for YIRLP (N-term Ac; D-Tyr at 1; C-term NH2) [Ac-y-I-R-L-P-NH2] was below 100 µM; that for GYIRLPPV-NH2 [G-Y-I-R-L-P-P-V-NH2] was below 100 µM; that for XIRLP (N,N-diethyl (Et(Et)) on Y1; C-term NH2) [Et(Et)Y-I-R-L-P-NH2] was below 100 µM.

Molecule Ac-YIRLAAFT-NH2 [Ac-Y-I-R-L-A-A-F-T-NH2] returned a Ki below 100 µM.

{(pOH)C6H4‑CH2CH2CO}-IRLA-NH2 [(pOH)C6H4-CH2CH2CO-I-R-L-A-NH2]: the Ki was below 100 µM. With IRLP (N-term (pOH)C6H4-CH2CH2CO; C-term NH2) [(pOH)C6H4-CH2CH2CO-I-R-L-P-NH2], the Ki is below 100 µM.

B6: (pOH)C6H4-OCH(CH3)CO-I-R-L-P-NH2 (peptide)
peptide: {(pOH)C6H4‑OCH(CH3)CO}-IRLP-NH2
SMILES: CC[C@H](C)[C@H](NC(=O)C(C)Oc1ccc(O)cc1)C(=O)N[C@@H](CCCNC(=N)N)C(=O)N[C@@H](CC(C)C)C(=O)N1CCC[C@H]1C(N)=O
The molecule B6 displayed a Ki below 100 µM. The value for {(pOH)C6H4‑OCH2CO}-IRLP-NH2 [(pOH)C6H4-OCH2CO-I-R-L-P-NH2] was below 100 µM; that for {(pOH)C6H4‑CH2CHOH‑CO}-IRLP-NH2 [(pOH)C6H4-CH2CHOH-CO-I-R-L-P-NH2] was below 100 µM. The value for {Ph‑CH═CH‑CO}-IRLA-NH2 [Ph-CH═CH-CO-I-R-L-A-NH2] was below 100 µM; that for GYIRD-NH2 [G-Y-I-R-D-NH2] was below 100 µM; that for GYIRV-NH2 [G-Y-I-R-V-NH2] was below 100 µM. As for GYIRY-NH2 [G-Y-I-R-Y-NH2], the figure is below 100 µM; as for GYIRS-NH2 [G-Y-I-R-S-NH2], below 100 µM. As to GYIRF-NH2 [G-Y-I-R-F-NH2], the Ki is below 100 µM. As for GYIRW-NH2 [G-Y-I-R-W-NH2], the figure is below 100 µM; as for {CClF2‑CO}-YIRLP-NH2 [CClF2-CO-Y-I-R-L-P-NH2], below 100 µM; as for IHLWYIRLP-NH2 [I-H-L-W-Y-I-R-L-P-NH2], below 100 µM.

B7: C-Y-I-R-L-C-NH2 (peptide)
peptide: CYIRLC-NH2
modifications: also: cyclisation unknown (underlining lost)
notes: may be cyclic (disulfide); underlining lost
The molecule B7 returned a Ki below 100 µM.

B8: Ac-Y-I-R-L-P-Dab(Ac-Y-I-R-L-P)-OH (peptide)
peptide: Ac-YIRLP[Dab]-OH
chain: Ac-YIRLP
modifications: also: branched: chain 2 attached to the Dab6 side-chain N
notes: branched peptide
B8 gave a Ki below 100 µM. The value for Ac-YKRLE-NH2 (also: cyclisation unknown (underlining lost), may be cyclic; underlining lost) [Ac-Y-K-R-L-E-NH2] was below 100 µM. The value for EYIRLK-NH2 (also: cyclisation unknown (underlining lost), may be cyclic; underlining lost) [E-Y-I-R-L-K-NH2] was below 100 µM; that for {Ph‑CH2CH2CH2‑CO}-IRLA-NH2 [Ph-CH2CH2CH2-CO-I-R-L-A-NH2] was below 100 µM.

Turning to {CH3CH2‑O‑CO}-YIRLP-NH2 [CH3CH2-O-CO-Y-I-R-L-P-NH2], the Ki is below 100 µM. As for GYIRLPAM-NH2 [G-Y-I-R-L-P-A-M-NH2], the figure is below 100 µM.
